The assay deals with HA-NanoLuc-VAMP2 (UniProt P63027). Nature of the assay: cell-based or functional assay.
UniProt P63027, sequence (P63027 1-116, tags or fused parts left off): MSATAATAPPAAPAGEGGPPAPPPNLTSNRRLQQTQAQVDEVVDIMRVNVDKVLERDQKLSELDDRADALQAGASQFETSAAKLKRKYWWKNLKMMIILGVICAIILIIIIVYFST

On to “botulinum neurotoxin type B (from UniProt P10844 2-1291) (enzyme)”, for which the cleavage of the reporter in SiMa cells, immunoblot with total VAMP2 antibody turned out to be 10 nM.

The record behind these values is patent US20200024639A1.
